Positions count from the first letter of the chain named.
B1: DGL518 (bispecific antibody, V domains shown)
V domain 1: EVQLVESGGGLVQPGGSLRLFCAASRSIFNINIMGWYRQAPGKQREWLASITSGGSTFYADSVKDRFTISRDSVKNTVYLQMNSLKPEDTAAYYCNRYRSVPLNTVYPWGQGTLVTVEP
V domain 2: QVQLVESGGGLVRPGGSLRLSCAASGFTFSSNGMHWFRQAPGKGLEWVSSIGSGGTSIYYADSVKGRFTISRDNAKNTLYLQMNSLKSDDTAVYYCSKEVTGATRGQGTQVTVEP
B2: DGL397 (bispecific antibody, human IgG1, kappa)
heavy 1: not shown
heavy 2: QVQLVESGGGLVQAGGSLRLSCAASGRIFSAYRMGWFRQAPGKEREFVAGITWRGQTTYYAASVKGRFTISKDNAKKTVYLQMNSLKPEETAVYYCAVETNGLGRWDRPSEYDYWGQGTQVTVEPKSSDKTHTCPPCPAPEAAGAPSVFLFPPKPKDTLMISRTPEVTCVVVDVSHEDPEVKFNWYVDGVEVHNAKTKPREEQYNSTYRVVSVLTVLHQDWLNGKEYKCKVSNKALPAPIEKTISKAKGQPREPQVCTLPPSRDELTKNQVSLSCAVKGFYPSDIAVEWESNGQPENNYKTTPPVLDSDGSFFLVSKLTVDKSRWQQGNVFSCSVMHEALHNRFTQKSLSLSPG
light: DIQLTQSPSFLSASVGDRVTITCRASQGISSYLAWYQQQPGKPPKLLIYAASTLHSGVPSRFSGSGSGTEFTLTISSLQPEDFATYYCQQLNRYPYTCGQGTKLEIKRTVAAPSVFIFPPSDEQLKSGTASVVCLLNNFYPREAKVQWKVDNALQSGNSQESVTEQDSKDSTYSLSSTLTLSKADYEKHKVYACEVTHQGLSSPVTKSFNRGEC
B3: DGL405 (bispecific antibody, human IgG1, kappa)
heavy 1: not shown
heavy 2: B2 heavy 2
light: DIQLTQSPSFLSASVGYRVTITCRASQGISSYLAWYQQKPGKAPQLLIYAASTLQSGVPSRFSGRGSGTEFTLTISSLQPEDFATYYCQQLNGYPFTFGPGTKVNIKRTVAAPSVFIFPPSDEQLKSGTASVVCLLNNFYPREAKVQWKVDNALQSGNSQESVTEQDSKDSTYSLSSTLTLSKADYEKHKVYACEVTHQGLSSPVTKSFNRGEC
B4: DGL395 (bispecific antibody, human IgG1, kappa)
heavy 1: not shown
heavy 2: QVQLVESGGGLVQAGGSLRLSCAASGRTFSSYAMGWFRQAPGKEREFVSAISWSGLSTYYVESVQGRFTISRDNAKNTVYLQMNSLKPEDTAVYYCAASRIYTNYVARSYEYDDWGQGTQVTVEPKSSDKTHTCPPCPAPEAAGAPSVFLFPPKPKDTLMISRTPEVTCVVVDVSHEDPEVKFNWYVDGVEVHNAKTKPREEQYNSTYRVVSVLTVLHQDWLNGKEYKCKVSNKALPAPIEKTISKAKGQPREPQVCTLPPSRDELTKNQVSLSCAVKGFYPSDIAVEWESNGQPENNYKTTPPVLDSDGSFFLVSKLTVDKSRWQQGNVFSCSVMHEALHNRFTQKSLSLSPG
light: B3 light with Y17D, Y32F, Q45K, R65S, N105D
B5: DGL603 (bispecific antibody, V domains shown)
V domain 1: EVQLVESGGGLVQPGGSLRLSCAASGFTFQNYAMSWLRKAPGEGLEWVSVINSGGGSTLYADSVKGRFTISRDNAKNTLYLQMHSLKSEDTAVYFCAKRRDDSTFGSLLYTHRGQGTQVTVEP
V domain 2: QVQLVESGGGLVQPGGSLRLSCAASGFTFSNYAMSWVRQAPGKGLEWVSAINSDGTSTSYADSVKGQFTISRDNAKNTLYLQMNSLKPEDTAVYYCTKWEGDTDSDYKFKDYWGQGTQVTVEP
B6: DGL461 (bispecific antibody, V domains shown)
V domain 1: B5 V domain 1
V domain 2: QVQLVESGGGLVQPGGSLRLSCAASGFTFEPYDMSWFRQAPGKGPEWVSAIDKGGGAGATYYADSVKGRFTISRDNAKKTLYLQMKSLKPEDTAVYYCAITAGPYSDSTPRVAYRGEGTQVTVEP
B7: DGL479 (bispecific antibody, V domains shown)
V domain 1: QVQLVESGGGLVQAGGSLRLSCAAPGRYAVGWFRQAPGKEYEFVAAITVSGGSKYYEDSVKGRFAISRDNAKNTVYLQMNSLKAEDTAVYYCAARTPKFGSGWYNRRGEYDYWGQGTQVTVEP
V domain 2: QVQLVESGGGLVQAGGSLRLSCAASGRTFSSYAMGWFRQAPGKEREFVSAISWSGLSTYYVESVQGRFTISRDNAKNTVYLQMNSLKPEDTAVYYCAASRIYTNYVARSYEYDDWGQGTQVTVEP
B8: DGL490 (bispecific antibody, V domains shown)
V domain 1: QVQLVESGGGLVQAGGSLRLSCAASARIFNSYAVAWFRQTPGKEREFVASISWSGGSTNYADSVKGRFTISRDNAKNTVFLQMNSLKPADTAVYYCAADRNYYPSVLGKYTYWGQGTQVTVEP
V domain 2: B7 V domain 2
B9: DGL594 (bispecific antibody, V domains shown)
V domain 1: EVQLVESGGGLVQAGGSLRLSCAASGSKFSFNAMGWYRQTPGKQRELVAIIINGDMINYADSVKGRFTISRDNAKNTMYLQMNSLKPEDTAVYYCKMTRYVYDYWGQGTQVTVEP
V domain 2: QVQLVESGGGLVQPGGSLRLSCAASGFTFSSKAMHWFRQAPGKGLEWVSSINSGGAITYYKDSVKGRFTVSRDNAKNILYLEMNSLKPEDTALYYCATDTDGRTRGQGTQVTVEP
B10: DGL587 (bispecific antibody, V domains shown)
V domain 1: QVQLVESGGGLVQAGGSLRLSCAASGRTFSSYVMGWFRQAPGQEREFVAAIMRNGIMTYYADSVKGRFTISRDNAKNTVYLQMNTLKPDDTAVYYCAAASRVGVSISQSSSYTSWGQGTQVTVEP
V domain 2: B9 V domain 2
B11: DGL496 (bispecific antibody, V domains shown)
V domain 1: EVQLVESGGGLVQAGGSLRLSCAASGLTFRNYAMAWFRQAPGKEREFVAGITWGGGLTHYVDSVKGRFTISRDNGKNTVYLQMNSLKSEDTAVYYCAGKTQGSTWYHLTPDGYDYWGQGTQVTVEP
V domain 2: B9 V domain 2
B12: DGL497 (bispecific antibody, V domains shown)
V domain 1: B11 V domain 1
V domain 2: QVQLVESGGGLVQPGGSLRLSCAASGFTFSNYAMSWIRQGPERGFEWVSRINSGGGTTSYADSVKGRFTISRDNAKNTLYLQMNSLKPEDTAVYYCAKHSHPDYSSNYYRPGQGTQVTVEP
B13: DGL508 (bispecific antibody, V domains shown)
V domain 1: B11 V domain 1
V domain 2: QVQLVESGGGLVQAGGSLRLSCAASGRTFSRYIMGWFRQATGKEREFVAAISWSGLSTHYADSVQGRFTISRDNAENTVYLQMNSLKPEDTAVYYCAADRHWETRLLPREYDYWGQGTQVTVEP
B14: DGL453 (bispecific antibody, V domains shown)
V domain 1: QVQLQESGGALVQPGGSLRLSCVVSGFTSDYFAIGWFRQAPGKEREGVSCIGSSDGSTIYSDSVKGRFTISRDNAKNTVYLQMNSLKPEDTGVYYCALDRGRRTIIGYACYATMKYWGKGTPVTVEP
V domain 2: B12 V domain 2
B15: DGL506 (bispecific antibody, V domains shown)
V domain 1: B11 V domain 1
V domain 2: QVQLVESGGGLVQAGGSLKLSCAASGGTFSSYAMGWFRQAPGKEREFVAAIMRSGGTTVYVNSVKGRFTVSRDNAKNTVYLQMNSLKPEDAAVYYCAAGRPVSRTSYYTYTYPHDYDYWGQGTQVSVEP
B16: DGL505 (bispecific antibody, V domains shown)
V domain 1: B11 V domain 1
V domain 2: QVQLVESGGGLVQLGDSLRLSCAASGRGFSSWTMAWFRQALGKRREFVAAITATGARTSSAESEGRFTISRDNAKNMVFLQMNSLKAEDTAVYYCAATGIASWDPGMADKYTYWGQGTQVTVEP
B17: DGL413 (bispecific antibody, human IgG1, kappa)
heavy 1: not shown
heavy 2: QVQLVESGGGLVQAGGSLRLSCAASGRTFSRYRMGWFRQAPGKEREFVAAITKSGATTYDADSVKGRFTISRDNAKNTLYLQMNSLKPEDTAVYYCAASYHSNWWPKNADEYAYWGQGTQVTVEPKSSDKTHTCPPCPAPEAAGAPSVFLFPPKPKDTLMISRTPEVTCVVVDVSHEDPEVKFNWYVDGVEVHNAKTKPREEQYNSTYRVVSVLTVLHQDWLNGKEYKCKVSNKALPAPIEKTISKAKGQPREPQVCTLPPSRDELTKNQVSLSCAVKGFYPSDIAVEWESNGQPENNYKTTPPVLDSDGSFFLVSKLTVDKSRWQQGNVFSCSVMHEALHNRFTQKSLSLSPG
light: DIQMTQSPSSLSASVGDRVTITCRASQGIGNYLAWFQQRPGKAPKSLIYAASSLQSGVPSKFSGSGSGTDFTLTISSLQPADFAIYYCQQYNIYPYTFGPGTRLEIKRTVAAPSVFIFPPSDEQLKSGTASVVCLLNNFYPREAKVQWKVDNALQSGNSQESVTEQDSKDSTYSLSSTLTLSKADYEKHKVYACEVTHQGLSSPVTKSFNRGEC

target: human IL-12 receptor (IL-12Rβ1 and IL-12Rβ2) on HEK-Blue IL-12 cells (human, UniProt P42701 24-662; Q99665 24-862); assay: cell-based or functional assay
Sequence (Q99665 24-862, chain 2 of 2, other chains not shown): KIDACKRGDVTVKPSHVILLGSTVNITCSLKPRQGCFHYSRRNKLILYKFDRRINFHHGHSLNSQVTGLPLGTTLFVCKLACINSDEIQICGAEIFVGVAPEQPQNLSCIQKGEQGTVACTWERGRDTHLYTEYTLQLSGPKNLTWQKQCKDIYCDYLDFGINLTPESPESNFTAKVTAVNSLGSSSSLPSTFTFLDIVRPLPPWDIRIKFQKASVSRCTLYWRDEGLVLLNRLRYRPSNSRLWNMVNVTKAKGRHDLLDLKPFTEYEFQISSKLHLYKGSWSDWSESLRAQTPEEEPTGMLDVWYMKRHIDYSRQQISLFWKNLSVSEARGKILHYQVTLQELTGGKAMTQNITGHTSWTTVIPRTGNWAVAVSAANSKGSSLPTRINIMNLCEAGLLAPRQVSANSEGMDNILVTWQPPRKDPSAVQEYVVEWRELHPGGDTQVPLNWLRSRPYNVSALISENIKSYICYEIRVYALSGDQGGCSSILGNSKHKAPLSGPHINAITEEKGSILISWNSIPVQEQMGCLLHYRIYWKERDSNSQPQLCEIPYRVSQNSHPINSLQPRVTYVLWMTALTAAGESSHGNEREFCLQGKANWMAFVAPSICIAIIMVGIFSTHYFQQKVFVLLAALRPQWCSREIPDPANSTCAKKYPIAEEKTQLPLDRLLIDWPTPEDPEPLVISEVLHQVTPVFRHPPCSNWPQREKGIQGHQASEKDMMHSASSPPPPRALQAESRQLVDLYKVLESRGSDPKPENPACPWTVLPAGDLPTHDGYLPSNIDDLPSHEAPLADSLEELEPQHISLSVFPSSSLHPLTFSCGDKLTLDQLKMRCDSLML

Max Absorbance	EC50	Binder
0.27		B1
0.28	1.6e-11 M (implied)	B2
0.26		B3
0.26	2.3e-10 M (implied)	B4
0.31		B5
0.31		B6
0.29		B7
0.25		B8
0.33		B9
0.32		B10
0.27		B11
0.32		B12
0.28		B13
0.25		B14
0.31		B15
0.26		B16
0.29		B17

From patent publication US20250019450A1 (DIAGONAL THERAPEUTICS, published 2025)
